Measured values reported in FireProtDB (doi:10.1021/bi00177a023).

B1: Guanyl-specific ribonuclease T1, P00651 (parent)
chain: MMYSKLLTLTTLLLPTALALPSLVERACDYTCGSNCYSSSDVSTAQAAGYQLHEDGETVGSNSYPHKYNNYEGFDFSVSSPYYEWPILSSGDVYSGGSPGADRVVFNENNQLAGVITHTGASGNNFVECT

Variants of: B1
Conditions: Aspergillus oryzae (strain ATCC 42149 / RIB 40); pH 5; Thermal; DSC; Sodium borate-NaOH 10 mM; NaCl 80 mM; reversible: yes; structure 1RN1; whole UniProt chain shown

Row | Variant | Tm | heat capacity change of unfolding | unfolding enthalpy (calorimetric) | unfolding enthalpy (van 't Hoff)
1 | Q51K | 61.2 °C | 1.14 kcal/mol/K | 122 kcal/mol | 115 kcal/mol

Same assay, conditions: Aspergillus oryzae (strain ATCC 42149 / RIB 40); pH 6; Thermal; DSC; Sodium borate-NaOH 10 mM; NaCl 80 mM; reversible: yes; structure 1RN1; whole UniProt chain shown

Row | Variant | Tm | heat capacity change of unfolding | unfolding enthalpy (calorimetric) | unfolding enthalpy (van 't Hoff)
2 | Q51K | 56.9 °C | 0.99 kcal/mol/K | 112 kcal/mol | 110 kcal/mol

Same assay, conditions: Aspergillus oryzae (strain ATCC 42149 / RIB 40); pH 6.5; Thermal; DSC; Sodium borate-NaOH 10 mM; NaCl 80 mM; reversible: yes; structure 1RN1; whole UniProt chain shown

Row | Variant | Tm | heat capacity change of unfolding | unfolding enthalpy (calorimetric) | unfolding enthalpy (van 't Hoff)
3 | Q51K | 54 °C | 1.19 kcal/mol/K | 109 kcal/mol | 109 kcal/mol

Same assay, conditions: Aspergillus oryzae (strain ATCC 42149 / RIB 40); pH 8.6; Thermal; DSC; Sodium borate-NaOH 10 mM; NaCl 80 mM; reversible: yes; structure 1RN1; whole UniProt chain shown

Row | Variant | Tm | heat capacity change of unfolding | unfolding enthalpy (calorimetric) | unfolding enthalpy (van 't Hoff)
4 | Q51K | 46.6 °C | 1.15 kcal/mol/K | 97.6 kcal/mol | 102 kcal/mol

Same assay, conditions: Aspergillus oryzae (strain ATCC 42149 / RIB 40); pH 9.7; Thermal; DSC; Sodium borate-NaOH 10 mM; NaCl 80 mM; reversible: yes; structure 1RN1; whole UniProt chain shown

Row | Variant | Tm | heat capacity change of unfolding | unfolding enthalpy (calorimetric) | unfolding enthalpy (van 't Hoff)
5 | Q51K | 44 °C | 1.38 kcal/mol/K | 94 kcal/mol | 105 kcal/mol
